Experiments:
[1] = molecular target: T1, AYRQR (5-mer on peptide array)
T1 chain: AYRQR

[2] = molecular target: T2, DWALQ (5-mer on peptide array)
T2 chain: DWALQ

[3] = molecular target: T3, DWVAQ (5-mer on peptide array)
T3 chain: DWVAQ

[4] = molecular target: T4, DWYLQ (5-mer on peptide array)
T4 chain: DWYLQ

[5] = molecular target: T5, DYALQ (5-mer on peptide array)
T5 chain: DYALQ

[6] = molecular target: T6, DYFLQ (5-mer on peptide array)
T6 chain: DYFLQ

[7] = molecular target: T7, DYVAQ (5-mer on peptide array)
T7 chain: DYVAQ

[8] = molecular target: T8, DYWLQ (5-mer on peptide array)
T8 chain: DYWLQ

[9] = molecular target: T9, EWALQ (5-mer on peptide array)
T9 chain: EWALQ

[10] = molecular target: T10, EWIAQ (5-mer on peptide array)
T10 chain: EWIAQ

[11] = molecular target: T11, EWVAQ (5-mer on peptide array)
T11 chain: EWVAQ

[12] = molecular target: T12, EYALQ (5-mer on peptide array)
T12 chain: EYALQ

[13] = molecular target: T13, EYFLQ (5-mer on peptide array)
T13 chain: EYFLQ

[14] = molecular target: T14, EYVAQ (5-mer on peptide array)
T14 chain: EYVAQ

[15] = molecular target: T15, EYVLQ (5-mer on peptide array)
T15 chain: EYVLQ

[16] = molecular target: T16, EYWLQ (5-mer on peptide array)
T16 chain: EYWLQ

[17] = molecular target: T17, FRQRG (5-mer on peptide array)
T17 chain: FRQRG

[18] = molecular target: T18, FRQRQ (5-mer on peptide array)
T18 chain: FRQRQ

[19] = molecular target: T19, LRYRQ (5-mer on peptide array)
T19 chain: LRYRQ

[20] = molecular target: T20, PRYRQ (5-mer on peptide array)
T20 chain: PRYRQ

[21] = molecular target: T21, QRQRQ (5-mer on peptide array)
T21 chain: QRQRQ

[22] = molecular target: T22, QRQTR (5-mer on peptide array)
T22 chain: QRQTR

[23] = molecular target: T23, QYRQR (5-mer on peptide array)
T23 chain: QYRQR

[24] = molecular target: T24, RFSQR (5-mer on peptide array)
T24 chain: RFSQR

[25] = molecular target: T25, RQRQR (5-mer on peptide array)
T25 chain: RQRQR

[26] = molecular target: T26, RYRQR (5-mer on peptide array)
T26 chain: RYRQR

[27] = molecular target: T27, RYSQR (5-mer on peptide array)
T27 chain: RYSQR

[28] = molecular target: T28, RYTQR (5-mer on peptide array)
T28 chain: RYTQR

[29] = molecular target: T29, VRQRQ (5-mer on peptide array)
T29 chain: VRQRQ

[30] = molecular target: T30, VRYRQ (5-mer on peptide array)
T30 chain: VRYRQ

[31] = molecular target: T31, WQRQR (5-mer on peptide array)
T31 chain: WQRQR

[32] = molecular target: T32, WYALQ (5-mer on peptide array)
T32 chain: WYALQ

[33] = molecular target: T33, YKYRQ (5-mer on peptide array)
T33 chain: YKYRQ

[34] = molecular target: T34, YQRQR (5-mer on peptide array)
T34 chain: YQRQR

[35] = molecular target: T35, YRQRA (5-mer on peptide array)
T35 chain: YRQRA

[36] = molecular target: T36, YRQSR (5-mer on peptide array)
T36 chain: YRQSR

[37] = molecular target: T37, YRQTR (5-mer on peptide array)
T37 chain: YRQTR

[38] = molecular target: T38, YRYRQ (5-mer on peptide array)
T38 chain: YRYRQ

[39] = molecular target: T39, Z-[GGGDYALQGGGG]
T39 chain: GGGDYALQGGGG

[40] = molecular target: T40, Z-[GGGYRYRQGGGG]
T40 chain: GGGYRYRQGGGG

B1: Streptomyces mobaraensis microbial transglutaminase (protein)
chain: DSDDRVTPPAEPLDRMPDPYRPSYGRAETVVNNYIRKWQQVYSHRDGRKQQMTEEQREWLSYGCVGVTWVNSGQYPTNRLAFASFDEDRFKNELKNGRPRSGETRAEFEGRVAKESFDEEKGFQRAREVASVMNRALENAHDESAYLDNLKKELANGNDALRNEDARSPFYSALRNTPSFKERNGGNHDPSRMKAVIYSKHFWSGQDRSSSADKRKYGDPDAFRPAPGTGLVDMSRDRNIPRSPTSPGEGFVNFDYGWFGAQTEADADKTVWTHGNHYHAPNGSLGAMHVYESKFRNWSEGYSDFDRGAYVITFIPKSWNTAPDKVKQGWP
5-mer peptide array signal with MTG [1]: found in the mid-field of the signal distribution on the array performed with MTG
5-mer peptide array, incorporation of N-(biotinyl)cadaverine [2]: The 16 glutamine-donor substrates identified with MTG
5-mer peptide array, incorporation of N-(biotinyl)cadaverine [3]: The 16 glutamine-donor substrates identified with MTG
5-mer peptide array, incorporation of N-(biotinyl)cadaverine [4]: The 16 glutamine-donor substrates identified with MTG
5-mer peptide array, incorporation of N-(biotinyl)cadaverine [5]: The 16 glutamine-donor substrates identified with MTG
5-mer peptide array, incorporation of N-(biotinyl)cadaverine [6]: The 16 glutamine-donor substrates identified with MTG
5-mer peptide array, incorporation of N-(biotinyl)cadaverine [7]: The 16 glutamine-donor substrates identified with MTG
5-mer peptide array, incorporation of N-(biotinyl)cadaverine [8]: The 16 glutamine-donor substrates identified with MTG
5-mer peptide array, incorporation of N-(biotinyl)cadaverine [9]: The 16 glutamine-donor substrates identified with MTG
5-mer peptide array, incorporation of N-(biotinyl)cadaverine [10]: The 16 glutamine-donor substrates identified with MTG
5-mer peptide array, incorporation of N-(biotinyl)cadaverine [11]: The 16 glutamine-donor substrates identified with MTG
5-mer peptide array, incorporation of N-(biotinyl)cadaverine [12]: The 16 glutamine-donor substrates identified with MTG
5-mer peptide array, incorporation of N-(biotinyl)cadaverine [13]: The 16 glutamine-donor substrates identified with MTG
5-mer peptide array, incorporation of N-(biotinyl)cadaverine [14]: The 16 glutamine-donor substrates identified with MTG
5-mer peptide array, incorporation of N-(biotinyl)cadaverine [15]: The 16 glutamine-donor substrates identified with MTG
5-mer peptide array, incorporation of N-(biotinyl)cadaverine [16]: The 16 glutamine-donor substrates identified with MTG
5-mer peptide array signal with MTG [17]: found in the mid-field of the signal distribution on the array performed with MTG
5-mer peptide array signal with MTG [18]: found in the mid-field of the signal distribution on the array performed with MTG
5-mer peptide array signal with MTG [19]: found in the mid-field of the signal distribution on the array performed with MTG
5-mer peptide array signal with MTG [20]: found in the mid-field of the signal distribution on the array performed with MTG
5-mer peptide array signal with MTG [21]: found in the mid-field of the signal distribution on the array performed with MTG
5-mer peptide array signal with MTG [22]: found in the mid-field of the signal distribution on the array performed with MTG
5-mer peptide array signal with MTG [23]: found in the mid-field of the signal distribution on the array performed with MTG
5-mer peptide array signal with MTG [24]: found in the mid-field of the signal distribution on the array performed with MTG
5-mer peptide array signal with MTG [25]: found in the mid-field of the signal distribution on the array performed with MTG
5-mer peptide array signal with MTG [26]: found in the mid-field of the signal distribution on the array performed with MTG
5-mer peptide array signal with MTG [27]: found in the mid-field of the signal distribution on the array performed with MTG
5-mer peptide array signal with MTG [28]: found in the mid-field of the signal distribution on the array performed with MTG
5-mer peptide array signal with MTG [29]: found in the mid-field of the signal distribution on the array performed with MTG
5-mer peptide array signal with MTG [30]: found in the mid-field of the signal distribution on the array performed with MTG
5-mer peptide array signal with MTG [31]: found in the mid-field of the signal distribution on the array performed with MTG
5-mer peptide array, incorporation of N-(biotinyl)cadaverine [32]: The 16 glutamine-donor substrates identified with MTG
5-mer peptide array signal with MTG [33]: found in the mid-field of the signal distribution on the array performed with MTG
5-mer peptide array signal with MTG [34]: found in the mid-field of the signal distribution on the array performed with MTG
5-mer peptide array signal with MTG [35]: found in the mid-field of the signal distribution on the array performed with MTG
5-mer peptide array signal with MTG [36]: found in the mid-field of the signal distribution on the array performed with MTG
5-mer peptide array signal with MTG [37]: found in the mid-field of the signal distribution on the array performed with MTG
5-mer peptide array signal with MTG [38]: found in the mid-field of the signal distribution on the array performed with MTG
KM [39]: 847 µM
Vmax [39]: 36.7 pmol/s
kcat [39]: 1.39 s⁻¹
kcat/KM [39]: 1640 M⁻¹ s⁻¹
KM [40]: 644 µM
Vmax [40]: 21.5 pmol/s
kcat [40]: 0.93 s⁻¹
kcat/KM [40]: 1440 M⁻¹ s⁻¹

Source: patent US20200249231
